Experimental data published in paper PMC11320721.

Assays:
[1] = target: PZP domain of JADE1 (JADE1PZP), wild type (human) (UniProt Q6IE81); test: other fluorescence titration
[2] = target: Nucleosome core particle with 207 bp DNA (NCP207) (human) (UniProt P04908); test: fluorescence polarisation
[3] = target: Nucleosome core particle with 147 bp 601 DNA (NCP147) (human) (UniProt P04908); test: fluorescence polarisation

Sequence of PZP domain of JADE1 (JADE1PZP), wild type (human) (Q6IE81 201-373): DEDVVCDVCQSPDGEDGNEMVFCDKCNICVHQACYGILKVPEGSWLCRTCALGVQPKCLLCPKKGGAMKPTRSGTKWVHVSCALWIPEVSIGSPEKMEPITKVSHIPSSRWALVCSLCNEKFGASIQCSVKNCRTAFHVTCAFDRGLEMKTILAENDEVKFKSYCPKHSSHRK
Sequence of PZP domain of JADE1 (JADE1PZP), wild type (Q6IE81 201-373): as above

H3_(1–31) peptide (residues 1–31 of H3) (from UniProt P68431 2-32)
Kd of the first site (two-site binding model) [1]: 0.3 µM
Kd of the second site (two-site binding model) [1]: 25 µM

H3_(15–34) peptide (residues 15–34 of H3) (from UniProt P68431 16-35)
Kd [1]: 63 µM

K331A/R334A/K367A (KRK) mutant of JADE1PZP (from UniProt Q6IE81 201-373) (domain or fragment)
fold decrease in binding against wild type JADE1PZP [2]: 55 fold

PZP domain of JADE1 (JADE1PZP), wild type (from UniProt Q6IE81 201-373) (domain or fragment)
S1/2 [2]: 0.5 µM
S1/2 [3]: 2.8 µM
